Reference: patent publication US20240034762A1 (YALE UNIVERSITY, published 2024)
No end group written: not given here.

T1: full-length human α-Klotho with a C-terminal HA-tag on HEK293 cells stably co-expressing FGFR1c (human, UniProt Q9UEF7 34-1012)
T1 sequence: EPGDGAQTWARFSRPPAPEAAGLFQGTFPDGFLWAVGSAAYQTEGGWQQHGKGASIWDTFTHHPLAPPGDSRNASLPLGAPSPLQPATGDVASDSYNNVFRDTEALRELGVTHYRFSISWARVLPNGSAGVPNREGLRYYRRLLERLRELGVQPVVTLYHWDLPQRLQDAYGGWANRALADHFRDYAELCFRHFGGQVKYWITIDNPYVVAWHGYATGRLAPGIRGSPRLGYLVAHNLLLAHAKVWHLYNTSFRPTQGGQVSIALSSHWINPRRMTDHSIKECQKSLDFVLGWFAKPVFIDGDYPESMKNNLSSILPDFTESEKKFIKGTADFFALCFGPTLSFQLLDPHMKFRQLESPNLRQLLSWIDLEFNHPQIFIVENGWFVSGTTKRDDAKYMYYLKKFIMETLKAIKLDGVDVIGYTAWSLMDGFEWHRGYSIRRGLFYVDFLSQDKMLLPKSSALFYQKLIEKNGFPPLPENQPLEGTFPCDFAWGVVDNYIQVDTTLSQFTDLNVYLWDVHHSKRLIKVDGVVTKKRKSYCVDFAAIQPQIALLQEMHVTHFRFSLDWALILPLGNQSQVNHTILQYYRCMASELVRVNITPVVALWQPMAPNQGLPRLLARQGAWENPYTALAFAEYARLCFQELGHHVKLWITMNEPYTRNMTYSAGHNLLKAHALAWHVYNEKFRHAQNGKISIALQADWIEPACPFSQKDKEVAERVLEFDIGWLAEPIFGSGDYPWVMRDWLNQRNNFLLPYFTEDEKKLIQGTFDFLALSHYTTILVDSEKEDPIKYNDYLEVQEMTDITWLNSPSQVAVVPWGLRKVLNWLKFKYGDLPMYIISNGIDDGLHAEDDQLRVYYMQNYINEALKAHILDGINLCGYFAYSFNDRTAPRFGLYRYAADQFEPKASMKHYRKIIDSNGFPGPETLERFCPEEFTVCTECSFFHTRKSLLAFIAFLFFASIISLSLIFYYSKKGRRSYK

T2: full-length human α-Klotho with a C-terminal HA-tag on HEK293 cells stably co-expressing FGFR1c (human) (UniProt Q9UEF7)
T2 sequence: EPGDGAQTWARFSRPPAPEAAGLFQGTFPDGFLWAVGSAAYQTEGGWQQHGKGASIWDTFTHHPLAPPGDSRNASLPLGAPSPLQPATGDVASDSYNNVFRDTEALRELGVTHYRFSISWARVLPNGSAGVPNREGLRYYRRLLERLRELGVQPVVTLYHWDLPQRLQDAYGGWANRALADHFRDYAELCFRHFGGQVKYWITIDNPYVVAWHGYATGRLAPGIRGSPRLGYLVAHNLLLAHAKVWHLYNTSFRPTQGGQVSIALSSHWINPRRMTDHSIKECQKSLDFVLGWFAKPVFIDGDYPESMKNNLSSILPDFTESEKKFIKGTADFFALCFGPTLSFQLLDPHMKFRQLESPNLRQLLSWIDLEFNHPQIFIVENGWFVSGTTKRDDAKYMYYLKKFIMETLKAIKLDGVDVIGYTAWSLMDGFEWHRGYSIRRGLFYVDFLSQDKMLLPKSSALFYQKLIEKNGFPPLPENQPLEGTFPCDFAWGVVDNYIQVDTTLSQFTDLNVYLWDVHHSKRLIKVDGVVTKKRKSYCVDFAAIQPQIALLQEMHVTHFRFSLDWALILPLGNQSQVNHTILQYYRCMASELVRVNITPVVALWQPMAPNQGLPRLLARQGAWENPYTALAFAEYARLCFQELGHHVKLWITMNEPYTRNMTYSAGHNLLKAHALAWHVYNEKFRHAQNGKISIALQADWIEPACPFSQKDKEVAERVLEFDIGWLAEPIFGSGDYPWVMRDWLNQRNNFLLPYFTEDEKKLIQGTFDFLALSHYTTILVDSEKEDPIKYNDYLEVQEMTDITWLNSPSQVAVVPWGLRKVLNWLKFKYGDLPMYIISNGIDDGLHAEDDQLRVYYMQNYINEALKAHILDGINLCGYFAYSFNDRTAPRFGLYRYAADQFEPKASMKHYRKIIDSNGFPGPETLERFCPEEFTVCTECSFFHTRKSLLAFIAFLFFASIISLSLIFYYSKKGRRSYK

T3: soluble extracellular domain of human α-Klotho (aa 1-980) fused to a 6xHis tag (human, UniProt Q9UEF7 34-980)
T3 construct: Secreted from HEK293 EBNA cells; also called sKLA; soluble α-Klotho
T3 sequence: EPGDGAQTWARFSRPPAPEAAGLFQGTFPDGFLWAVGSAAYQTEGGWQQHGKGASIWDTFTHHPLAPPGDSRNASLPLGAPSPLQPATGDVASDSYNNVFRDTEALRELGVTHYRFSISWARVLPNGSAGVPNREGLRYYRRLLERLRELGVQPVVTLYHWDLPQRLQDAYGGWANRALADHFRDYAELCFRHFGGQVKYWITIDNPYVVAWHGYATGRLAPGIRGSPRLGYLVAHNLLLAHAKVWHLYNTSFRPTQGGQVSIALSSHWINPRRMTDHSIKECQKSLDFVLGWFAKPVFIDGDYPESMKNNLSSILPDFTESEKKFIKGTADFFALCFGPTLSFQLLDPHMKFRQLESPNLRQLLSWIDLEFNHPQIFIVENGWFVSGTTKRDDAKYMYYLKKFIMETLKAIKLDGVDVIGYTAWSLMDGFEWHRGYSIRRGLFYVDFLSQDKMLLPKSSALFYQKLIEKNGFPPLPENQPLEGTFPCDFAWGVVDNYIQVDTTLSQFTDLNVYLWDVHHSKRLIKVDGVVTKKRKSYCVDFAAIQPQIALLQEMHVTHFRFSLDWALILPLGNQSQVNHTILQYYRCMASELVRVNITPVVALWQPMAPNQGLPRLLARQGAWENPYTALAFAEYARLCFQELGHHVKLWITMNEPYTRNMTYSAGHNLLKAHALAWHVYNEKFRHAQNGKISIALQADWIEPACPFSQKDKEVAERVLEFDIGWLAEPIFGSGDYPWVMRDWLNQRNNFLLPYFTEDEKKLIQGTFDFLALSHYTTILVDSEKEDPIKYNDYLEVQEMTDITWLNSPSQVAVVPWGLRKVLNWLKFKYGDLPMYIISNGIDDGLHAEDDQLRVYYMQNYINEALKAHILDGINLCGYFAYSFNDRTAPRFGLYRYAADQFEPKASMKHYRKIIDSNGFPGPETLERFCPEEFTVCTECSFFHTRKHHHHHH


What was measured:
[1] = molecular target: T1, full-length human α-Klotho with a …; experiment: cell-based or functional assay
[2] = molecular target: T2, full-length human α-Klotho with a C-terminal HA-tag on HEK293 cells stably co-expressing FGFR1c (human); experiment: cell-based or functional assay
[3] = molecular target: T3, soluble extracellular domain of human …; experiment: BLI (Octet); GST fusion captured on anti-GST biosensor, sKLA in solution at 6.25-200 nM, 1:1 fit, mean ± S.D. of 3 experiments
Procedure: Kinetic parameters and dissociation constants of sKLA binding to the various forms of full length FGF23 or GST-fused C-terminal fragments of FGF23 were studied using Bio-Layer Interferometry (BLI). Octet RED96 system (Pall ForteBio) equipped with anti-mouse IgG Fc (AMC) biosensors was used to study interactions between α-Klotho and FLAG-tagged FGF23. Biosensor tips were loaded with anti-FLAG M2 antibody (Millipore Sigma) at 5 μg/ml for 2 min, washed in BLI buffer (25 mM HEPES, 150 mM NaCl, pH 7.5, 0.002% Tween-20, 1 mg/mL BSA) for 60 s, and then loaded with FLAG-tagged FGF23 at 5 μg/ml for 4 min. Alternatively, anti-GST biosensor tips were loaded with 5 ug/ml GST fused with various FGF23 C-terminal fragments for 15 s. Subsequently, ligand-loaded sensor tips were dipped into microplate wells containing different sKLA concentrations, ranging from 6.25 nM to 200 nM in 2-fold dilutions of BLI buffer. After each binding cycle the sensor tips were regenerated with 10 mM glycine (pH 1.5). The collected data were referenced using a parallel buffer control subtraction, and sensograms were fitted globally to a 1:1 Langmuir binding model using ForteBio Data Analysis 10.0 software provided by the manufacturer.
To examine the significance of each of the two FGF23 repeats in α-Klotho binding and receptor activation, bio-layer interferometry (BLI) analyses was applied to measure the kinetic parameters and dissociation constants of each repeat alone or the entire C-terminal tail of FGF23 towards sKLA. To that end, GST-fusion proteins expressing either full length (FL) tail of FGF23 (amino acids […]), the first repeat R1 (amino acids S180-S205), or the second repeat R2 (amino acids […]) were produced in E. coli (FIG. 6) and immobilized on BLI sensors. sKLA was produced in HEK293 EBNA cells and used as an analyte in the BLI measurements (see elsewhere herein).

Binder | complete inhibition of FGF23-induced MAPK stimulation in HEK293 cells co-expressing α-Klotho and FGFR1c [2] | Kd [3] | koff [3] | kon [3] | also measured
full length human FGF23 (aa 25-251) expressed in E. coli (ligand) YPNASPLLGSSWGGLIHLYTATARNSYHLQIHKNGHVDGAPHQTIYSALMIRSEDAGFVVITGVMSRRYLCMDFRGNIFGSHYFDPENCRFQHQTLENGYDVYHSPQYHFLVSLGAAKAAFLPGMNPPPYSQFLSRRNEIPLIHFNTPIPRQHTQSAEDDSERDPLNVLKPRARMTPAPASCSQELPSAEDNSPMASDPLGVVRGGRVNTHAGGTGPEGCRPFAKFI | – | – | – | – | activation of MAPK response in HEK293 cells co-expressing FGFR1c and α-Klotho; ligand concentration at saturation [1]: 0.1 nM
SAEDDSERDPLNVLKPRARMTPAPAS (Fc fusion, not shown: a dimerising Fc or GST, not fully specified (N-terminus); also: dimeric Fc fusion protein, Fc-R1 junction/linker not given here) [human IgG1 Fc fused to R1 (aa 180-205) of human FGF23] | 100 to 250 nM | – | – | – | –
GST fusion of the full-length C-terminal tail of human FGF23 (aa 180-251) (other, Expressed in E. coli BL21-Gold (DE3); also called GST-FL; FL tail of FGF23; not shown: glutathione S-transferase encoded by the pGEX4T1 vector (GE Healthcare)) SAEDDSERDPLNVLKPRARMTPAPASCSQELPSAEDNSPMASDPLGVVRGGRVNTHAGGTGPEGCRPFAKFI | – | 15 nM | 0.0031 s⁻¹ | 210000 M⁻¹ s⁻¹ | –
SAEDNSPMASDPLGVVRGGRVNTHAGGTGPEG (other, not fully specified; also: fused to glutathione S-transferase (pGEX4T1), vector linker residues not given here, The plasmid limits are used here; also called GST-R2; not shown: glutathione S-transferase encoded by the pGEX4T1 vector (GE Healthcare)) [GST fusion of repeat 2 (R2) of the human FGF23 C-terminal tail] | – | 17 nM | 0.0034 s⁻¹ | 200000 M⁻¹ s⁻¹ | –

The next lines start with results.

complete inhibition of FGF23-induced MAPK stimulation in HEK293 cells co-expressing α-Klotho and FGFR1c [2] | Kd [3] | koff [3] | kon [3] | Binder | also measured
100 to 250 nM | – | – | – | {human IgG1 Fc (aa 223-449)}-SAEDNSPMASDPLGVVRGGRVNTHAGGTGPEG (Fc fusion, not shown: a dimerising Fc or GST, also: R2 given as aa 212-243 or S212-T239) [human IgG1 Fc fused to R2 of human FGF23] | –
100 to 250 nM | – | – | – | human IgG1 Fc fused to the full-length C-terminal tail of human FGF23 (aa 180-251) (Fc fusion, not shown: a dimerising Fc or GST) SAEDDSERDPLNVLKPRARMTPAPASCSQELPSAEDNSPMASDPLGVVRGGRVNTHAGGTGPEGCRPFAKFI | –
